Results as given in publication PMC9482650, “Quantitative fragmentomics allow affinity mapping of interactomes” (Nature Communications, 2022).

Experiments:
Assay in all cases: holdup assay
Parameters in all cases: key: below the threshold = too weak to quantify, mostly under pKd 3.1 to 4
GRASP, Q7Z6J2 = biological target: GRASP, Q7Z6J2
PDZD7_3, Q9H5P4 = biological target: T1, PDZD7_3, Q9H5P4
T1 sequence (Q9H5P4 857-944, limits assumed, looked up): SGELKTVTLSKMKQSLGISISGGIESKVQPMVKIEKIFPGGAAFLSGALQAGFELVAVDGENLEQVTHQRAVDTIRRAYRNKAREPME

MAGI1_2, Q96QZ7 = biological target: MAGI1_2, Q96QZ7
MAGI1_2, Q96QZ7, sequence (Q96QZ7 456-580): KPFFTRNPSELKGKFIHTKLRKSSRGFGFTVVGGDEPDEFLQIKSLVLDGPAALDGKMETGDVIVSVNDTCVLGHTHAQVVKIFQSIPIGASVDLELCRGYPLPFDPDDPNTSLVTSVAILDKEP

DLG4_1, P78352 = biological target: DLG4_1, P78352
DLG4_1, P78352, sequence (P78352 62-152): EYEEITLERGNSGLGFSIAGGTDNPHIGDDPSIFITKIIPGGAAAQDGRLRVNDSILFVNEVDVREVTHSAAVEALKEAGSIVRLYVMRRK

DLG4_3, P78352 = biological target: DLG4_3, P78352
DLG4_3, P78352, sequence (P78352 306-403): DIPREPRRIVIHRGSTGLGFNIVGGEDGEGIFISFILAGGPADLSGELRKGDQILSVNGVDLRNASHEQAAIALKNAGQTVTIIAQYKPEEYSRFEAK

MPDZ_10, O75970 = biological target: T2, MPDZ_10, O75970
T2 sequence (O75970 1624-1722, limits assumed, looked up): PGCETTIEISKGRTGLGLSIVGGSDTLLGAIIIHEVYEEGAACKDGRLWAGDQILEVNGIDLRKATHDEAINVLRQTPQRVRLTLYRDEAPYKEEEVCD

SNX27, Q96L92 = biological target: SNX27, Q96L92
GRID2IP_1, A4D2P6 = biological target: GRID2IP_1, A4D2P6
GRID2IP_1, A4D2P6, sequence (A4D2P6 1-87): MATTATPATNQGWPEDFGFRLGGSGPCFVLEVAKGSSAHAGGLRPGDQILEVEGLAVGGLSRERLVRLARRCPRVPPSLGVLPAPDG

SYNJ2BP, P57105 = biological target: T3, SYNJ2BP, P57105
T3 sequence (P57105 8-110, limits assumed, looked up): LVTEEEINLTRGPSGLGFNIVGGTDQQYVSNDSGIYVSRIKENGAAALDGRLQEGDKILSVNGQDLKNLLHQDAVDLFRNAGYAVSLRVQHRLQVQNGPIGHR

SNTG1, Q9NSN8 = biological target: T4, SNTG1, Q9NSN8
T4 sequence (Q9NSN8 52-150, limits assumed, looked up): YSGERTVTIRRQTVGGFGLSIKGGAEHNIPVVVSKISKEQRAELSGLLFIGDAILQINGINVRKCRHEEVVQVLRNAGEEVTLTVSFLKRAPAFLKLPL

MAGI2_2, Q86UL8 = biological target: MAGI2_2, Q86UL8
MAGI2_2, Q86UL8, sequence (Q86UL8 410-522): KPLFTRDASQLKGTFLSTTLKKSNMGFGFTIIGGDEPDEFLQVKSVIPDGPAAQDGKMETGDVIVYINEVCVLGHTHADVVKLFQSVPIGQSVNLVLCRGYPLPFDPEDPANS

FRMPD1, Q5SYB0 = biological target: T5, FRMPD1, Q5SYB0
T5 sequence (Q5SYB0 52-145, limits assumed, looked up): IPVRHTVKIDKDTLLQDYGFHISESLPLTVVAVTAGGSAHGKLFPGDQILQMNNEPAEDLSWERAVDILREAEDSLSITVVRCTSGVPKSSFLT

SNTB1, Q13884 = biological target: T6, SNTB1, Q13884
T6 sequence (Q13884 107-205, limits assumed, looked up): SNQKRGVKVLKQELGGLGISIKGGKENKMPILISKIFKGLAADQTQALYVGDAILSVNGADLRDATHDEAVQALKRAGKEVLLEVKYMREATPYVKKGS

MAGI2_4, Q86UL8 = biological target: MAGI2_4, Q86UL8
MAGI2_4, Q86UL8, sequence (Q86UL8 772-865): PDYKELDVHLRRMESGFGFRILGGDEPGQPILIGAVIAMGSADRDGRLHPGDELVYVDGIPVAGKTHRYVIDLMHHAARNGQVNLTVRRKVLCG

SNTG2, Q9NY99 = biological target: T7, SNTG2, Q9NY99
T7 sequence (Q9NY99 68-166, limits assumed, looked up): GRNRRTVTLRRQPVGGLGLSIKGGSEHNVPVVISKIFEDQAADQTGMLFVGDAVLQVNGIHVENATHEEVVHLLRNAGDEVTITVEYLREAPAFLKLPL

GRIP1_4, Q9Y3R0 = biological target: T8, GRIP1_4, Q9Y3R0
T8 sequence (Q9Y3R0 467-571, limits assumed, looked up): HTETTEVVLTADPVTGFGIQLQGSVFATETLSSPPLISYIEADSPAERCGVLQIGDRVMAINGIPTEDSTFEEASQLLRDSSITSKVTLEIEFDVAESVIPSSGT

SCRIB_1, Q14160 = biological target: SCRIB_1, Q14160
SCRIB_1, Q14160, sequence (Q14160 718-814): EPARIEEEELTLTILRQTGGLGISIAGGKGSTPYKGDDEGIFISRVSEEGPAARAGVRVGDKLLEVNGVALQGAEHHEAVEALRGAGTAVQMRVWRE

TIAM2, Q8IVF5 = biological target: T9, TIAM2, Q8IVF5
T9 sequence (Q8IVF5 885-986, limits assumed, looked up): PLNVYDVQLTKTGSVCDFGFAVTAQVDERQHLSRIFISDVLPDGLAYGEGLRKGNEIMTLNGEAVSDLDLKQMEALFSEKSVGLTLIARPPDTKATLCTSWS

NHERF4_4, Q86UT5 = biological target: NHERF4_4, Q86UT5
NHERF4_4, Q86UT5, sequence (Q86UT5 464-550): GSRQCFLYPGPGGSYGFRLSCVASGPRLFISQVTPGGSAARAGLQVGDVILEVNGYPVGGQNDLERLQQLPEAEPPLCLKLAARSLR

LNX1_3, Q8TBB1 = biological target: LNX1_3, Q8TBB1
LNX1_3, Q8TBB1, sequence (Q8TBB1 500-596): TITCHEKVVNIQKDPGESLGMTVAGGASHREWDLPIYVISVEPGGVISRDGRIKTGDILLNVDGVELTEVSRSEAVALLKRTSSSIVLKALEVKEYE

TJP3_3, O95049 = biological target: T10, TJP3_3, O95049
T10 sequence (O95049 375-456, limits assumed, looked up): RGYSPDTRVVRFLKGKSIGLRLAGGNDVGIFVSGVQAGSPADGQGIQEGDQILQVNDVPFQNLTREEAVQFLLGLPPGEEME

HTRA4, P83105 = biological target: T11, HTRA4, P83105
T11 sequence (P83105 378-476, limits assumed, looked up): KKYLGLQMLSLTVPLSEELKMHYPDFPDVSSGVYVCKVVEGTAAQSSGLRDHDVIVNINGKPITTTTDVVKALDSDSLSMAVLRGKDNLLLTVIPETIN

DLG4_2, P78352 = biological target: DLG4_2, P78352
DLG4_2, P78352, sequence (P78352 155-259): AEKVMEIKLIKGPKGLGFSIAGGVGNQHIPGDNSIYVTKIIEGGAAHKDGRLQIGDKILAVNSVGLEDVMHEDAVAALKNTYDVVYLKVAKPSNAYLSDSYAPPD

PARD3B_1, Q8TEW8 = biological target: T12, PARD3B_1, Q8TEW8
T12 sequence (Q8TEW8 196-299, limits assumed, looked up): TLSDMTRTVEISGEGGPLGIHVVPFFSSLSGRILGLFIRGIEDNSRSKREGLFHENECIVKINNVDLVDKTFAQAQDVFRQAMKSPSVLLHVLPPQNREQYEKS

FRMPD2_1, Q68DX3 = biological target: FRMPD2_1, Q68DX3
FRMPD2_1, Q68DX3, sequence (Q68DX3 770-861): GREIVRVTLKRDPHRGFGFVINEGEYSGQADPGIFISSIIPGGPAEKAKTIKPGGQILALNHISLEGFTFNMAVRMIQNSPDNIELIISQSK

LAP2, Q96RT1 = biological target: LAP2, Q96RT1
LAP2, Q96RT1, sequence (Q96RT1 other isoform, or with tags, fused parts or gaps): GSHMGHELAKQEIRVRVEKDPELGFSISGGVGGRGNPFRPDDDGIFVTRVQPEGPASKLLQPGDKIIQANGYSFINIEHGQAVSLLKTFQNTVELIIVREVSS

[1] = plain residues with an end cap or a label only (N-terminal biotin on a linker: gsgsgs; C-terminal amide)
[2] = plain residues with an end cap or a label only (N-terminal biotin on a linker: ttds)

GRASP, Q7Z6J2, sequence (Q7Z6J2 96-193): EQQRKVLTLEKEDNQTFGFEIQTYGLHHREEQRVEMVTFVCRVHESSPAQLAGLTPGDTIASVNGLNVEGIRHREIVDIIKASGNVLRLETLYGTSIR

With TLSLTDSSVDGIPPYR [AXIN1_int, O15169] as the binder, how does the pKd (GRASP, Q7Z6J2; [1]) read?
The pKd was “below the threshold”.

And the pKd (PDZD7_3, Q9H5P4; [1])?
Its pKd is “below the threshold”.

And the pKd (MAGI1_2, Q96QZ7; [1])?
Its pKd is “below the threshold”.

And the pKd (DLG4_1, P78352; [1])?
Its pKd is “below the threshold”.

And the pKd (DLG4_3, P78352; [1])?
The pKd was “below the threshold”.

And the pKd (MPDZ_10, O75970; [1])?
Its pKd is “below the threshold”.

What about the pKd (SNX27, Q96L92; [1]) of the same binder?
The pKd was “below the threshold”.

And the pKd (GRID2IP_1, A4D2P6; [1])?
Its pKd is “below the threshold”.

And the pKd (SYNJ2BP, P57105; [1])?
The pKd was 4.52.

What about the pKd (SNTG1, Q9NSN8; [1]) of the same binder?
Its pKd is “below the threshold”.

And the pKd (MAGI2_2, Q86UL8; [1])?
Its pKd is “below the threshold”.

What about the pKd (FRMPD1, Q5SYB0; [1]) of the same binder?
The pKd was “below the threshold”.

And the pKd (SNTB1, Q13884; [1])?
Its pKd is “below the threshold”.

And the pKd (MAGI2_4, Q86UL8; [1])?
Its pKd is “below the threshold”.

And the pKd (SNTG2, Q9NY99; [1])?
Its pKd is “below the threshold”.

And the pKd (GRIP1_4, Q9Y3R0; [1])?
Its pKd is “below the threshold”.

And the pKd (SCRIB_1, Q14160; [1])?
Its pKd is “below the threshold”.

What about the pKd (TIAM2, Q8IVF5; [1]) of the same binder?
Its pKd is 3.9.

What about the pKd (NHERF4_4, Q86UT5; [1]) of the same binder?
The pKd was “below the threshold”.

What about the pKd (LNX1_3, Q8TBB1; [1]) of the same binder?
The pKd was “below the threshold”.

What about the pKd (TJP3_3, O95049; [1]) of the same binder?
The pKd was “below the threshold”.

And the pKd (HTRA4, P83105; [1])?
Its pKd is “below the threshold”.

And the pKd (DLG4_2, P78352; [1])?
Its pKd is “below the threshold”.

And the pKd (PARD3B_1, Q8TEW8; [1])?
Its pKd is “below the threshold”.

And the pKd (FRMPD2_1, Q68DX3; [1])?
Its pKd is “below the threshold”.

And the pKd (LAP2, Q96RT1; [1])?
The pKd was “below the threshold”.

Which results are given for IYVPEAQTRL [DLGAP4, Q9Y2H0]?
pKd (GRASP, Q7Z6J2; [2]): 4.2; pKd (PDZD7_3, Q9H5P4; [2]): 4.31; pKd (MAGI1_2, Q96QZ7; [2]): below the threshold; pKd (DLG4_1, P78352; [2]): below the threshold; pKd (DLG4_3, P78352; [2]): below the threshold; pKd (MPDZ_10, O75970; [2]): below the threshold; pKd (SNX27, Q96L92; [2]): 5.41; pKd (GRID2IP_1, A4D2P6; [2]): below the threshold; pKd (SYNJ2BP, P57105; [2]): below the threshold; pKd (SNTG1, Q9NSN8; [2]): below the threshold; pKd (MAGI2_2, Q86UL8; [2]): below the threshold; pKd (FRMPD1, Q5SYB0; [2]): below the threshold; pKd (SNTB1, Q13884; [2]): 4.2; pKd (MAGI2_4, Q86UL8; [2]): below the threshold; pKd (SNTG2, Q9NY99; [2]): 4.67; pKd (GRIP1_4, Q9Y3R0; [2]): below the threshold; pKd (SCRIB_1, Q14160; [2]): 5.3; pKd (TIAM2, Q8IVF5; [2]): below the threshold; pKd (NHERF4_4, Q86UT5; [2]): below the threshold; pKd (LNX1_3, Q8TBB1; [2]): below the threshold; pKd (TJP3_3, O95049; [2]): below the threshold; pKd (HTRA4, P83105; [2]): below the threshold; pKd (DLG4_2, P78352; [2]): below the threshold; pKd (PARD3B_1, Q8TEW8; [2]): 4.16; pKd (FRMPD2_1, Q68DX3; [2]): below the threshold; pKd (LAP2, Q96RT1; [2]): below the threshold

With SSRTRRETQL [HPV16-E6, P03126] as the binder, how does the pKd (GRASP, Q7Z6J2; [2]) read?
The pKd was “below the threshold”.

And the pKd (PDZD7_3, Q9H5P4; [2])?
Its pKd is 4.68.

What about the pKd (MAGI1_2, Q96QZ7; [2]) of the same binder?
Its pKd is 5.91.

And the pKd (DLG4_1, P78352; [2])?
Its pKd is 4.73.

And the pKd (DLG4_3, P78352; [2])?
Its pKd is 5.06.

What about the pKd (MPDZ_10, O75970; [2]) of the same binder?
Its pKd is 3.68.

And the pKd (SNX27, Q96L92; [2])?
The pKd was 4.91.

What about the pKd (GRID2IP_1, A4D2P6; [2]) of the same binder?
Its pKd is “below the threshold”.

And the pKd (SYNJ2BP, P57105; [2])?
Its pKd is 5.18.

And the pKd (SNTG1, Q9NSN8; [2])?
The pKd was 3.8.

And the pKd (MAGI2_2, Q86UL8; [2])?
The pKd was 4.87.

And the pKd (FRMPD1, Q5SYB0; [2])?
The pKd was “below the threshold”.

And the pKd (SNTB1, Q13884; [2])?
The pKd was 4.92.

What about the pKd (MAGI2_4, Q86UL8; [2]) of the same binder?
Its pKd is 3.89.

What about the pKd (SNTG2, Q9NY99; [2]) of the same binder?
Its pKd is 4.45.

And the pKd (GRIP1_4, Q9Y3R0; [2])?
The pKd was “below the threshold”.

What about the pKd (SCRIB_1, Q14160; [2]) of the same binder?
Its pKd is 5.42.

And the pKd (TIAM2, Q8IVF5; [2])?
Its pKd is “below the threshold”.

What about the pKd (NHERF4_4, Q86UT5; [2]) of the same binder?
The pKd was 3.61.

And the pKd (LNX1_3, Q8TBB1; [2])?
The pKd was 3.51.

What about the pKd (TJP3_3, O95049; [2]) of the same binder?
Its pKd is 3.68.

And the pKd (HTRA4, P83105; [2])?
Its pKd is “below the threshold”.

And the pKd (DLG4_2, P78352; [2])?
The pKd was 4.66.

What about the pKd (PARD3B_1, Q8TEW8; [2]) of the same binder?
Its pKd is “below the threshold”.

And the pKd (FRMPD2_1, Q68DX3; [2])?
Its pKd is 4.12.

And the pKd (LAP2, Q96RT1; [2])?
The pKd was “below the threshold”.
